{
  "source": "paper PMC3630172",
  "data": [
    {"test_system": "GST-rPfPuf2 (Plasmodium falciparum)", "experiment": "EMSA", "conditions": "LightShift RNA EMSA binding buffer (salt, pH not given), 5% glycerol, 2 ug tRNA per 20 ul, RNase inhibitor, 2.5 nM RNA, 0.25-400 nM rPfPuf2, room temperature …", "units": {"Kd": "nM"}, "values": [
      {"sequence": "GAAAUGUUCUUUUCCAAUUAUAUUUUGUUCGAUGAUUC [pfs28 RNA1M]", "Kd": 143},
      {"sequence": "GAAAUGUUCUUUUGUAAUUAUAUUUUGUUCGAUGAUUC [pfs28 RNA1]", "Kd": 6.7},
      {"sequence": "UUCUCAUUUCCUAAUAAAUUGUUGUGAAAACAA [pfs25 RNA1M]", "Kd": 169},
      {"sequence": "UUCUCAUUUGUUAAUAAAUUGUUGUGAAAACAA [pfs25 RNA1]", "Kd": 11.5}
    ]}
  ]
}
